Results from article PMC10199020.

Target: NL-IL23R co-expressed with IL12Rβ1 (IL-23 receptor on cells) (UniProt Q5VWK5)
Test: FRET or BRET; NanoBRET competition on living transfected HEK293T cells; 300 pM IL23-TMR displaced by unlabelled antagonist (concentration series or a single concentration); 1 h at 37 °C in HBSS with 1 mg/mL BSA

Sequence of NL-IL23R co-expressed with IL12Rβ1 (IL-23 receptor on cells) (Q5VWK5 24-629, chain 1 of 2, other chains not shown): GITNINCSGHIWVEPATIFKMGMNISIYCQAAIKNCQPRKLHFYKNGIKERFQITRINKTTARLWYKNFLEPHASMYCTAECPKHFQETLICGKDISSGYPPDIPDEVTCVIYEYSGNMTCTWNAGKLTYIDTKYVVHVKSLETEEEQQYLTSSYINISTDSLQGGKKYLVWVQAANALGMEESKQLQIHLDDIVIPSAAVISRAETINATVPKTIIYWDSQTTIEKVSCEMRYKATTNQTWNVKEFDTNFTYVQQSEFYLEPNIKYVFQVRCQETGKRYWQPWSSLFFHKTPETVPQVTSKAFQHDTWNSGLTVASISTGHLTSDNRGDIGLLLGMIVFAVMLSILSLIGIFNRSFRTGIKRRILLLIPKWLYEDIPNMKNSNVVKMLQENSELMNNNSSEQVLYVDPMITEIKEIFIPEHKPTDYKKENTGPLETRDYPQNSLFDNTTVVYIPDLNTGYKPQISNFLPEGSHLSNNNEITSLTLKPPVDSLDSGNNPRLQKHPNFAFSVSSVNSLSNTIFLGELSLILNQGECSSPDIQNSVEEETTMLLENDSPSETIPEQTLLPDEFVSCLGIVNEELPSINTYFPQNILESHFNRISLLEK

- Ki: 0.469 nM
Substance: IL12p80 (from UniProt P29460 23-328) (ligand)
